Reference: doi:10.1101/2025.02.03.636288

Target: MBP-CARD9 (human) (UniProt Q9H257)
Experiment: other fluorescence titration

Sequence of MBP-CARD9 (human) (Q9H257 whole entry): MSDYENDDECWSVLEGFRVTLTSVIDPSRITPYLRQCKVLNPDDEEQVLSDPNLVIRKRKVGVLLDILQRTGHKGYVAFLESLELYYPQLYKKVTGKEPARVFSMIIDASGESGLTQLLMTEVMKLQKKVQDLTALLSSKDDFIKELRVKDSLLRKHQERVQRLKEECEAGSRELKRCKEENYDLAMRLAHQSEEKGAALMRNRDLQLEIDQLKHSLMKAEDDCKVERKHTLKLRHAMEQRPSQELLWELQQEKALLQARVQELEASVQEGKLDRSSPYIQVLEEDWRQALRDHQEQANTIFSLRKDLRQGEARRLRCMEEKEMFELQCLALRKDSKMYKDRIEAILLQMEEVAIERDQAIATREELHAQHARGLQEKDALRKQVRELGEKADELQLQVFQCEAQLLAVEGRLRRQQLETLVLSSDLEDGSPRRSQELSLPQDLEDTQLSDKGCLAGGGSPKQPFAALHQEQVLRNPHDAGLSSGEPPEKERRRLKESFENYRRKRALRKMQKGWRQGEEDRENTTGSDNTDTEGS

Kd: 300 nM
Substance: CK2 complex (New England Bio, P6010L) (from UniProt P68400 1-391; P67870 1-215)
